In the supplement of paper PMC9112550, “Optimization of the antimicrobial peptide Bac7 by deep mutational scanning” (BMC Biology, 2022):

Test system: Escherichia coli TOP10
Test: shrunken log2 fold change of peptide-encoding DNA abundance (4.5 h post-induction vs induction); higher = less antimicrobial activity (less host growth inhibition)
Details: time post-induction: 4.5 h; library: site-saturation at positions 5, 18, 19, 20
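Also: peptides expressed intracellularly from a pBAD plasmid library in pooled LB shake-flask culture, induced with 0.3% L-arabinose, DNA abundance read by NGS, three biological replicates, DESeq2 with apeglm shrinkage.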

Sequence | shrunken log2 fold change
RRIRIRPPRLPRPRPRPQKQPRP | -0.128
RRIRCRPPRLPRPRPRPNQLPRP | -0.345
RRIRCRPPRLPRPRPRPWMVPRP | -0.559
RRIRIRPPRLPRPRPRPQREPRP | 0.0374
RRIRFRPPRLPRPRPRPCNAPRP | -0.23
RRIRGRPPRLPRPRPRPYAQPRP | 0.104
RRIRDRPPRLPRPRPRPEHRPRP | -0.01
RRIRNRPPRLPRPRPRPVIYPRP | -0.301
RRIRWRPPRLPRPRPRPATCPRP | 0.275
RRIRNRPPRLPRPRPRPLDHPRP | -0.0699
RRIRHRPPRLPRPRPRPLLNPRP | -0.443
RRIRARPPRLPRPRPRPFLMPRP | 0.791
RRIRNRPPRLPRPRPRPIRMPRP | -0.00776
RRIRVRPPRLPRPRPRPKDVPRP | 0.00902
RRIRNRPPRLPRPRPRPCLMPRP | -0.299
RRIRRRPPRLPRPRPRPLLKPRP | 0.415
RRIRRRPPRLPRPRPRPKYMPRP | -0.444
RRIRERPPRLPRPRPRPSIYPRP | -1
RRIRERPPRLPRPRPRPKRCPRP | -0.0369
RRIRKRPPRLPRPRPRPTAWPRP | 1.13
RRIRSRPPRLPRPRPRPTKIPRP | 0.00311
RRIRFRPPRLPRPRPRPRDHPRP | 0.015
RRIRFRPPRLPRPRPRPARNPRP | 0.0979
RRIRPRPPRLPRPRPRPPKTPRP | 0.246
RRIRGRPPRLPRPRPRPAQDPRP | 0.836

Sequence | shrunken log2 fold change
RRIRNRPPRLPRPRPRPKYTPRP | -0.63
RRIRHRPPRLPRPRPRPFIAPRP | -0.272
RRIRQRPPRLPRPRPRPWMDPRP | -0.118
RRIRFRPPRLPRPRPRPTFLPRP | -0.452
RRIRVRPPRLPRPRPRPGVGPRP | 0.275
RRIRHRPPRLPRPRPRPLPQPRP | 0.348
RRIRDRPPRLPRPRPRPITCPRP | -0.403
RRIRVRPPRLPRPRPRPIGQPRP | 0.0922
RRIRTRPPRLPRPRPRPIHKPRP | -0.281
RRIRGRPPRLPRPRPRPPFVPRP | 0.803
RRIRYRPPRLPRPRPRPQFDPRP | -0.0286
RRIRARPPRLPRPRPRPFHHPRP | -0.294
RRIRKRPPRLPRPRPRPAVEPRP | 0.019
RRIRMRPPRLPRPRPRPYFSPRP | -0.177
RRIRKRPPRLPRPRPRPCWTPRP | -0.0905
RRIRFRPPRLPRPRPRPSSLPRP | -0.856
RRIRSRPPRLPRPRPRPIAAPRP | 0.333
RRIRKRPPRLPRPRPRPSVLPRP | 0.0575
RRIRIRPPRLPRPRPRPPALPRP | 0.0147
RRIRLRPPRLPRPRPRPTGAPRP | -0.211
RRIRIRPPRLPRPRPRPVGVPRP | -0.157
RRIRIRPPRLPRPRPRPDNDPRP | -0.115
RRIRVRPPRLPRPRPRPSCKPRP | -0.207
RRIRSRPPRLPRPRPRPGIYPRP | -0.135
RRIRMRPPRLPRPRPRPECRPRP | 2.38

Sequence | shrunken log2 fold change
RRIRYRPPRLPRPRPRPFHLPRP | -0.532
RRIRHRPPRLPRPRPRPDGDPRP | 0.0106
RRIRTRPPRLPRPRPRPEAWPRP | 0.178
RRIRPRPPRLPRPRPRPTPHPRP | 0.373
RRIRPRPPRLPRPRPRPPHTPRP | 0.398
RRIRHRPPRLPRPRPRPKMHPRP | -0.0718
RRIRRRPPRLPRPRPRPTPHPRP | 0.884
RRIRNRPPRLPRPRPRPGGTPRP | 0.154
RRIRYRPPRLPRPRPRPTPWPRP | -0.145
RRIRHRPPRLPRPRPRPPMRPRP | 0.747
RRIRPRPPRLPRPRPRPPEMPRP | 0.426
RRIRVRPPRLPRPRPRPVKCPRP | -0.163
RRIRHRPPRLPRPRPRPYPRPRP | -0.27
RRIRTRPPRLPRPRPRPQSNPRP | -0.581
RRIRIRPPRLPRPRPRPDYWPRP | -0.195
RRIRVRPPRLPRPRPRPHPLPRP | -0.435
RRIRLRPPRLPRPRPRPKKHPRP | -0.154
RRIRLRPPRLPRPRPRPNDGPRP | -0.127
RRIRIRPPRLPRPRPRPFAIPRP | -0.886
RRIRFRPPRLPRPRPRPFYHPRP | -0.727
RRIRKRPPRLPRPRPRPLWPPRP | 0.46
RRIRERPPRLPRPRPRPEAGPRP | 0.0425
RRIRTRPPRLPRPRPRPQSKPRP | -0.209
RRIRTRPPRLPRPRPRPSKCPRP | -0.535
RRIRPRPPRLPRPRPRPDWQPRP | -0.0976
